{"source": "patent US6749856B1", "about": "“Mucosal cytotoxic T lymphocyte responses” (priority 1997, dated 2004)", "system": "P18IIIB-I10 peptide-pulsed 51Cr labeled P815 targets", "test": "CTL 51Cr release assay with PP, LP or SP effector cells of immunized mice", "format": "in vivo, BALB/c mice", "conditions": "day 35"}
{"molecule": "rmIL-12 (protein, UniProt P43431 23-215; P43432 23-335, looked up) Interleukin-12 subunit alpha: RVIPVSGPARCLSQSRNLLKTTDDMVKTAREKLKHYSCTAEDIDHEDITRDQTSTLKTCLPLELHKNESCLATRETSSTTRGSCLPPQKTSLMMTLCLGSIYEDLKMYQTEFQAINAALQNHNHQQIILDKGMLVAIDELMQSLNHNGETLRQKPPVGEADPYRVKMKLCILLHAFSTRVVTINRVMGYLSSA Interleukin-12 subunit beta: MWELEKDVYVVEVDWTPDAPGETVNLTCDTPEEDDITWTSDQRHGVIGSGKTLTITVKEFLDAGQYTCHKGGETLSHSHLLLHKKENGIWSTEILKNFKNKTFLKCEAPNYSGRFTCSWLVQRNMDLKFNIKSSSSSPDSRAVTCGMASLSAEKVTLDQRDYEKYSVSCQEDVTCPTAEETLPIELALEARQQNKYENYSTSFFIRDIIKPDPPKNLQMKPLKNSQVEVSWEYPDSWSTPHSYFSLKFFVRIQRKKEKMKETEEGCNQKGAFLVEKTSTEVQCKGGNVCVQAQDRYYNSSCSKWACVPCRVRS", "values": [{"measurement": "change in HIV-specific CTL activity in mucosal or systemic sites, rmIL-12 by IP route", "setting": "1 μg IP each day of IR immunization with PCLUS3-18IIIB 50 μg", "value": "did not lead to significant changes"}, {"measurement": "change in CTL level in mucosal and systemic sites, rmIL-12 + DOTAP intrarectally with peptide", "setting": "1 μg IR", "value": "significant increase in the CTL level"}, {"measurement": "induction of mucosal or systemic CTL in IR-immunized IFNγ−/− mice treated mucosally with rmIL-12", "setting": "rmIL-12 1 μg/mouse + DOTAP IR with peptide", "value": "did not lead to the induction of mucosal or systemic CTL"}]}
